T1: fluorescein labeled Pex5 (S. cerevisiae, UniProt P35056 1-612, fluorescein (FAM) on a GGGK peptide joined by sortase at the C-terminal LPETGG site)
T1 construct: Pex5, S. cerevisiae W303; after labelling the chain ends LPET-GGGK-FAM; also called Pex5-FAM; source: E. coli BL21*, purified (Ni-NTA, anti-FLAG, Superdex 200), labelled with sortase and GGGK-FAM peptide; not shown: His6, C-terminal, cleaved
T1 sequence (looked up): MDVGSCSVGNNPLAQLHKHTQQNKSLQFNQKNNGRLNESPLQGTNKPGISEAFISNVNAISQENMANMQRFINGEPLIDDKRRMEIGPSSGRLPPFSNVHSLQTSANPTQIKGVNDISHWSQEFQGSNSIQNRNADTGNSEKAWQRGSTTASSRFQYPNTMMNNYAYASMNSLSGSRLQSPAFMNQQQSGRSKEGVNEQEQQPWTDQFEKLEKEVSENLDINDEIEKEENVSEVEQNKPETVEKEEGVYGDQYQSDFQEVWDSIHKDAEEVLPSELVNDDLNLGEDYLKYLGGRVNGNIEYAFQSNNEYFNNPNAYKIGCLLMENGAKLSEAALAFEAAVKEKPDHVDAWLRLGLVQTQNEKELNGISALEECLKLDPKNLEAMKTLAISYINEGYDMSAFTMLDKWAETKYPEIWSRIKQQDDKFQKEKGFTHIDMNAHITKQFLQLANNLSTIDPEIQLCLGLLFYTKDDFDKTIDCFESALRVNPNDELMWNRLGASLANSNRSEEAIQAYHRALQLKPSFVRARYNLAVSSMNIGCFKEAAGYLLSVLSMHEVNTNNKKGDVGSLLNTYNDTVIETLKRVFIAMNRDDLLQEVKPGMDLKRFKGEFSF

T2: His-Pex6-FLAG (S. cerevisiae, UniProt P33760 1-1030)
T2 construct: Pex6, S. cerevisiae W303, purified individually; not shown: His, N-terminal, kept; FLAG, C-terminal, kept
T2 sequence (looked up): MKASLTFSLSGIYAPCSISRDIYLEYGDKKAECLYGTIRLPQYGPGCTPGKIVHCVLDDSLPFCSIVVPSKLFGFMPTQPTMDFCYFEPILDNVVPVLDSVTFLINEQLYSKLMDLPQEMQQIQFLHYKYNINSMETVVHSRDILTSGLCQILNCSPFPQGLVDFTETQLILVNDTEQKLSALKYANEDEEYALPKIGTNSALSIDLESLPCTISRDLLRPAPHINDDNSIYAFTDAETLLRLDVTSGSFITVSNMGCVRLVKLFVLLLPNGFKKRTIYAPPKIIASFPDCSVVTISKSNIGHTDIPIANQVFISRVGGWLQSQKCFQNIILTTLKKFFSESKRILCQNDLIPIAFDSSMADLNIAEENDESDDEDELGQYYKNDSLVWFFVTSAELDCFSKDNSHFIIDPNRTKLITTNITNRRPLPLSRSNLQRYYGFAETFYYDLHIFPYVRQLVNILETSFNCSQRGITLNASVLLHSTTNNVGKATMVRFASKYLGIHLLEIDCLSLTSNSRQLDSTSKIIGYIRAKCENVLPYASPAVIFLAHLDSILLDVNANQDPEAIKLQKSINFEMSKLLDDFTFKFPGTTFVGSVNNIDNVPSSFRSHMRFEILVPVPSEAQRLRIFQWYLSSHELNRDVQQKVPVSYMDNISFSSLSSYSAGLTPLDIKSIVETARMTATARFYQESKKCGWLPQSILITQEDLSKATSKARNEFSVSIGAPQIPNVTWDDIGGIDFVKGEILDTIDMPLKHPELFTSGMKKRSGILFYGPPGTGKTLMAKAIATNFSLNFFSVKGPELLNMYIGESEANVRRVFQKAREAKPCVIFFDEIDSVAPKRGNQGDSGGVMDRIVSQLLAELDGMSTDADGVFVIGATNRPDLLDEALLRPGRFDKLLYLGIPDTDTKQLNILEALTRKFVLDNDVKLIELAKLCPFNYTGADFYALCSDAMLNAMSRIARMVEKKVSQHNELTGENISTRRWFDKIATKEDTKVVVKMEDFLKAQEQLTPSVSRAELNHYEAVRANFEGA


Columns and labels:
Settings in all cases: both partners purified
[1] = target: T3, Pex1-FLAG/His-Pex6 hexamer, wild type (S. cerevisiae, UniProt P24004 1-1043; P33760 1-1030); assay: inhibition of ATPase activity (ATP/NADH coupled enzyme assay); apparent KD from the concentration-dependent inhibition of the ATPase activity of 5 nM Pex1/Pex6 by titrated Pex15; 5 mM ATP, 2 uM BSA; n = 3 technical replicates
T3 construct: Pex1, S. cerevisiae W303; Pex6, S. cerevisiae W303; Heterohexamer with alternating subunits; also called WT Pex1/Pex6; Pex1/Pex6; source: E. coli BL21*, co-expressed, purified (Ni-NTA, anti-FLAG, Superose6); copies: 3 + 3

fluorescein labeled Pex5 = target: T1, fluorescein labeled Pex5; assay: pull-down; MBP-Pex6/Pex1 or MBP-Pex15 1-327 on magnetic amylose resin with Pex5-FAM; same conditions as Figure 7B (350 nM Pex5-FAM, 1 h, 4 °C, 60 mM HEPES pH 7.6, 150 mM NaCl, 150 mM KCl, 10% glycerol, 0.05% Tween-20, 10 mM MgCl2, 0.5 mM EDTA, 5 mM ATP); maltose elution; Pex5 seen by its fluorescein
His-Pex6-FLAG = target: T2, His-Pex6-FLAG; assay: pull-down; 1 uM MBP-Pex15 1-327-FLAG-His on magnetic amylose resin with 0.5 uM Pex1-Strep/His-Pex6 hexamer, His-Pex1-FLAG, His-Pex6-FLAG or 5 uM His-Pex6 1-215; 1 h, 4 °C, 60 mM HEPES pH 7.6, 150 mM NaCl, 150 mM KCl, 10% glycerol, 0.05% Tween-20, 10 mM MgCl2, 0.5 mM EDTA, 5 mM ATP; maltose elution; SYPRO-Ruby or anti-His blot
[2] = target: T4, Pex1-WB2/Pex6-WB2 mutant hexamer (Pex1-E798Q-Strep/His-Pex6-E832Q) (S. cerevisiae, UniProt P24004 1-1043; P33760 1-1030, E798Q | E832Q); assay: pull-down; MBP-Pex15 1-309 or MBP-Pex15 1-253 with Pex1-WB2/Pex6-WB2; maltose elution, SDS-PAGE
T4 construct: Pex1, S. cerevisiae W303, Walker B D2 mutant; Pex6, S. cerevisiae W303, Walker B D2 mutant; also called Pex1-WB/Pex6-WB; ATPase-deficient Pex1/Pex6; source: E. coli BL21*, co-expressed, purified (Ni-NTA, Streptactin); copies: 3 + 3
T4 sequence (P24004 whole entry E798Q, one chain of several): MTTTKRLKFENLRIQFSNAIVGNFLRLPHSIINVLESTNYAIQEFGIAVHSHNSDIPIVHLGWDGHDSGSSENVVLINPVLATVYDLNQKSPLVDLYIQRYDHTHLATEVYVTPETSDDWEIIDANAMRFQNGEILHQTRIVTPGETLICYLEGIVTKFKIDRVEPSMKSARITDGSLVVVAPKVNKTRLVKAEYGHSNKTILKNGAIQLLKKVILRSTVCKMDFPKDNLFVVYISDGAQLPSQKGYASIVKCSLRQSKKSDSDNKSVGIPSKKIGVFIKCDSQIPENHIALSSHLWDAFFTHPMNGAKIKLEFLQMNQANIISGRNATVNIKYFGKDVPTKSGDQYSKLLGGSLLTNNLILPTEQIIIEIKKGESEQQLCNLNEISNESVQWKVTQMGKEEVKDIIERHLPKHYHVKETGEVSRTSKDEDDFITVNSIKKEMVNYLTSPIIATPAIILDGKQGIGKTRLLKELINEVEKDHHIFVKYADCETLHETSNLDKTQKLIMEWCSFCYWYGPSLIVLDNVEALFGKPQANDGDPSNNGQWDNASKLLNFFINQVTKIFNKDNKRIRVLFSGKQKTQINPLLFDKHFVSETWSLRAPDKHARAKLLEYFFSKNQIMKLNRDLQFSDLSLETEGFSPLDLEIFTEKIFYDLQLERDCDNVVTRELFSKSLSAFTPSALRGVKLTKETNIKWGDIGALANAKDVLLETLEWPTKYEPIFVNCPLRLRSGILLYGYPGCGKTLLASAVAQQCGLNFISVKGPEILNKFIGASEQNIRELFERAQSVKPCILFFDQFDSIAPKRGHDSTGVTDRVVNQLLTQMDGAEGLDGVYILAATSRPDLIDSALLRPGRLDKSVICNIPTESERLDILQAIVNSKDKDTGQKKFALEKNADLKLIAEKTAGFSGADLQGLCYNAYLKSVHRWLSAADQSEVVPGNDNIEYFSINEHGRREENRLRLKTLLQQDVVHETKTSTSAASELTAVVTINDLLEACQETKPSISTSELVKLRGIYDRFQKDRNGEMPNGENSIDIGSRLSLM

T3 sequence (P24004 whole entry, chain 1 of 2, one chain of several): as the sequence (P24004 whole entry E798Q, one chain of several) above, with Q798E counted along it

Binder | Kd [1] [µM] | further results
Pex15 1-309 L22A L23A (domain or fragment, S. cerevisiae, UniProt Q08215 1-309, looked up, also called Pex15 L22AL23A; source: E. coli BL21*, purified (Ni-NTA, tag cleaved with PreScission protease, Superdex 200); not shown: His, C-terminal, cleaved) MAASEIMNNLPMHSLDSSLRDAANDDLFIESDESTKSVNDQRSEVFQECVNLFIKRDIKDCLEKMSEVGFIDITVFKSNPMILDLFVSACDIMPSFTKLGLTLQSEILNIFTLDTPQCIETRKIILGDLSKLLVINKFFRCCIKVIQFNLTDHTEQEEKTLELESIMSDFIFVYITKMRTTIDVVGLQELIEIFIFQVKVKLHHKKPSPNMYWALCKTLPKLSPTLKGLYLSKDVSIEDAILNSIDNKIQKDKAKSKGKQRGVKQKIHHFHEPMLHNSSEEQVKVEDAFNQRTSTDSRLQSTGTAPRKK | 8.7 | –
MBP-Pex15 1-327-FLAG-His (domain or fragment, S. cerevisiae, UniProt Q08215 1-327, looked up, Pex15, S. cerevisiae W303, cytosolic domain, residues 1-327; Held on magnetic amylose resin by its MBP; not shown: MBP, N-terminal, kept; FLAG, C-terminal, kept; His, C-terminal, kept) MAASEIMNNLPMHSLDSSLRDLLNDDLFIESDESTKSVNDQRSEVFQECVNLFIKRDIKDCLEKMSEVGFIDITVFKSNPMILDLFVSACDIMPSFTKLGLTLQSEILNIFTLDTPQCIETRKIILGDLSKLLVINKFFRCCIKVIQFNLTDHTEQEEKTLELESIMSDFIFVYITKMRTTIDVVGLQELIEIFIFQVKVKLHHKKPSPNMYWALCKTLPKLSPTLKGLYLSKDVSIEDAILNSIDNKIQKDKAKSKGKQRGVKQKIHHFHEPMLHNSSEEQVKVEDAFNQRTSTDSRLQSTGTAPRKKNNDITVLAGSFWAVLKHH | – | binding result (fluorescein labeled Pex5): binds; binding result (His-Pex6-FLAG): binds
MBP-Pex15 1-309 (domain or fragment, S. cerevisiae, UniProt Q08215 1-309, looked up, not shown: MBP, N-terminal, kept) MAASEIMNNLPMHSLDSSLRDLLNDDLFIESDESTKSVNDQRSEVFQECVNLFIKRDIKDCLEKMSEVGFIDITVFKSNPMILDLFVSACDIMPSFTKLGLTLQSEILNIFTLDTPQCIETRKIILGDLSKLLVINKFFRCCIKVIQFNLTDHTEQEEKTLELESIMSDFIFVYITKMRTTIDVVGLQELIEIFIFQVKVKLHHKKPSPNMYWALCKTLPKLSPTLKGLYLSKDVSIEDAILNSIDNKIQKDKAKSKGKQRGVKQKIHHFHEPMLHNSSEEQVKVEDAFNQRTSTDSRLQSTGTAPRKK | – | binding result [2]: binds
MBP-Pex15 1-253 (domain or fragment, S. cerevisiae, UniProt Q08215 1-253, looked up, not shown: MBP, N-terminal, kept) MAASEIMNNLPMHSLDSSLRDLLNDDLFIESDESTKSVNDQRSEVFQECVNLFIKRDIKDCLEKMSEVGFIDITVFKSNPMILDLFVSACDIMPSFTKLGLTLQSEILNIFTLDTPQCIETRKIILGDLSKLLVINKFFRCCIKVIQFNLTDHTEQEEKTLELESIMSDFIFVYITKMRTTIDVVGLQELIEIFIFQVKVKLHHKKPSPNMYWALCKTLPKLSPTLKGLYLSKDVSIEDAILNSIDNKIQKDK | – | binding result [2]: binds
Pex15 12-309 (domain or fragment, S. cerevisiae, UniProt Q08215 12-309, looked up, begins at M12 (primer 'Pex15 M12 forward', D1:p20); source: E. coli BL21*, purified (Ni-NTA, tag cleaved with PreScission protease, Superdex 200); not shown: His, C-terminal, cleaved) MHSLDSSLRDLLNDDLFIESDESTKSVNDQRSEVFQECVNLFIKRDIKDCLEKMSEVGFIDITVFKSNPMILDLFVSACDIMPSFTKLGLTLQSEILNIFTLDTPQCIETRKIILGDLSKLLVINKFFRCCIKVIQFNLTDHTEQEEKTLELESIMSDFIFVYITKMRTTIDVVGLQELIEIFIFQVKVKLHHKKPSPNMYWALCKTLPKLSPTLKGLYLSKDVSIEDAILNSIDNKIQKDKAKSKGKQRGVKQKIHHFHEPMLHNSSEEQVKVEDAFNQRTSTDSRLQSTGTAPRKK | 0.86 | –
Pex15 30-309 (domain or fragment, S. cerevisiae, UniProt Q08215 30-309, looked up, begins at E30 (primer 'Pex15 E30 forward', D1:p20); source: E. coli BL21*, purified (Ni-NTA, tag cleaved with PreScission protease, Superdex 200); not shown: His, C-terminal, cleaved) ESDESTKSVNDQRSEVFQECVNLFIKRDIKDCLEKMSEVGFIDITVFKSNPMILDLFVSACDIMPSFTKLGLTLQSEILNIFTLDTPQCIETRKIILGDLSKLLVINKFFRCCIKVIQFNLTDHTEQEEKTLELESIMSDFIFVYITKMRTTIDVVGLQELIEIFIFQVKVKLHHKKPSPNMYWALCKTLPKLSPTLKGLYLSKDVSIEDAILNSIDNKIQKDKAKSKGKQRGVKQKIHHFHEPMLHNSSEEQVKVEDAFNQRTSTDSRLQSTGTAPRKK | 5.3 | –
Pex15 43-309 (domain or fragment, S. cerevisiae, UniProt Q08215 43-309, looked up, begins at S43 (primer 'Pex15 S43 forward', D1:p20); source: E. coli BL21*, purified (Ni-NTA, tag cleaved with PreScission protease, Superdex 200); not shown: His, C-terminal, cleaved) SEVFQECVNLFIKRDIKDCLEKMSEVGFIDITVFKSNPMILDLFVSACDIMPSFTKLGLTLQSEILNIFTLDTPQCIETRKIILGDLSKLLVINKFFRCCIKVIQFNLTDHTEQEEKTLELESIMSDFIFVYITKMRTTIDVVGLQELIEIFIFQVKVKLHHKKPSPNMYWALCKTLPKLSPTLKGLYLSKDVSIEDAILNSIDNKIQKDKAKSKGKQRGVKQKIHHFHEPMLHNSSEEQVKVEDAFNQRTSTDSRLQSTGTAPRKK | 5.6 | –

Source: publication PMC5762779, “The peroxisomal AAA-ATPase Pex1/Pex6 unfolds substrates by processive threading” (Nature Communications, 2018)
